Data as given in the supplement of paper PMC5998384.

Columns and labels:
[1] = tested on: HeLa Kyoto; experiment: solubility in G1/S (NP-40 vs SDS abundance) (log2 ratio); higher = more soluble; conditions: cell cycle stage: G1/S
[2] = tested on: HeLa Kyoto; experiment: melting temperature (median over replicates), in situ; higher = more thermally stable
[3] = tested on: HeLa Kyoto; experiment: solubility change mitosis vs G1/S (difference of NP-40 vs SDS log2 ratios) (log2 ratio difference); higher = more soluble in mitosis
[4] = tested on: HeLa Kyoto; experiment: thermal stability score vs G1/S (z-score of summed log2 fold changes over temperatures); higher = more thermally stable than in G1/S
[5] = cell cycle stage: early G1 (4.5 h after nocodazole release)
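Throughout, for melting temperature (median over replicates), in situ: HeLa Kyoto cells synchronized by double thymidine or nocodazole block, proteins quantified by TMT10plex mass spectrometry, three independent biological replicates.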
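Throughout, for solubility change mitosis vs G1/S (difference of NP-40 vs SDS log2 ratios): synchronized HeLa Kyoto cells (double thymidine block for G1/S, nocodazole release for mitosis), protein amounts in NP-40 versus SDS lysates quantified by mass spectrometry, three biological replicates.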
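Throughout, for solubility in G1/S (NP-40 vs SDS abundance): HeLa Kyoto cells arrested at G1/S by double thymidine block, proteins quantified by TMT10plex mass spectrometry in mild NP-40 versus SDS extracts, three biological replicates.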
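Throughout, for thermal stability score vs G1/S (z-score of summed log2 fold changes over temperatures): synchronized HeLa Kyoto cells, proteins quantified by TMT10plex mass spectrometry, three biological replicates, mitosis taken 0.5 h after nocodazole release, G1/S directly after double thymidine block.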

Sequence | solubility in G1/S (log2) [1] | melting temperature ([2]; cell cycle stage: G1/S) | melting temperature ([2]; cell cycle stage: mitosis) | solubility change mitosis (log2) [3] | thermal stability score [4, 5] | thermal stability score ([4]; cell cycle stage: mitosis)
MAAVAAVAARRRRSWASLVLAFLGVCLGITLAVDRSNFKTCEESSFCKRQRSIRPGLSPYRALLDSLQLGPDSLTVHLIHEVTKVLLVLELQGLQKNMTRFRIDELEPRRPRYRVPDVLVADPPIARLSVSGRDENSVELTMAEGPYKIILTARPFRLDLLEDRSLLLSVNARGLLEFEHQRAPRVSQGSKDPAEGDGAQPEETPRDGDKPEETQGKAEKDEPGAWEETFKTHSDSKPYGPMSVGLDFSLPGMEHVYGIPEHADNLRLKVTEGGEPYRLYNLDVFQYELYNPMALYGSVPVLLAHNPHRDLGIFWLNAAETWVDISSNTAGKTLFGKMMDYLQGSGETPQTDVRWMSETGIIDVFLLLGPSISDVFRQYASLTGTQALPPLFSLGYHQSRWNYRDEADVLEVDQGFDDHNLPCDVIWLDIEHADGKRYFTWDPSRFPQPRTMLERLASKRRKLVAIVDPHIKVDSGYRVHEELRNLGLYVKTRDGSDYEGWCWPGSAGYPDFTNPTMRAWWANMFSYDNYEGSAPNLFVWNDMNEPSVFNGPEVTMLKDAQHYGGWEHRDVHNIYGLYVHMATADGLRQRSGGMERPFVLARAFFAGSQRFGAVWTGDNTAEWDHLKISIPMCLSLGLVGLSFCGADVGGFFKNPEPELLVRWYQMGAYQPFFRAHAHLDTGRREPWLLPSQHNDIIRDALGQRYSLLPFWYTLLYQAHREGIPVMRPLWVQYPQDVTTFNIDDQYLLGDALLVHPVSDSGAHGVQVYLPGQGEVWYDIQSYQKHHGPQTLYLPVTLSSIPVFQRGGTIVPRWMRVRRSSECMKDDPITLFVALSPQGTAQGELFLDDGHTFNYQTRQEFLLRRFSFSGNTLVSSSADPEGHFETPIWIERVVIIGAGKPAAVVLQTKGSPESRLSFQHDPETSVLVLRKPGINVASDWSIHLR [GANAB] | -0.0187 | 53.6 °C | 54.2 °C | -0.155 | 3.69 | 5.36
MAAVAGSGAAAAPSSLLLVVGSEFGSPGLLTYVLEELERGIRSWDVDPGVCNLDEQLKVFVSRHSATFSSIVKGQRSLHHRGDNLETLVLLNPSDKSLYDELRNLLLDPASHKLLVLAGPCLEETGELLLQTGGFSPHHFLQVLKDREIRDILATTPPPVQPPILTITCPTFGDWAQLAPAVPGLQGALRLQLRLNPPAQLPNSEGLCEFLEYVAESLEPPSPFELLEPPTSGGFLRLGRPCCYIFPGGLGDAAFFAVNGFTVLVNGGSNPKSSFWKLVRHLDRVDAVLVTHPGADSLPGLNSLLRRKLAERSEVAAGGGSWDDRLRRLISPNLGVVFFNACEAASRLARGEDEAELALSLLAQLGITPLPLSRGPVPAKPTVLFEKMGVGRLDMYVLHPPSAGAERTLASVCALLVWHPAGPGEKVVRVLFPGCTPPACLLDGLVRLQHLRFLREPVVTPQDLEGPGRAESKESVGSRDSSKREGLLATHPRPGQERPGVARKEPARAEAPRKTEKEAKTPRELKKDPKPSVSRTQPREVRRAASSVPNLKKTNAQAAPKPRKAPSTSHSGFPPVANGPRSPPSLRCGEASPPSAACGSPASQLVATPSLELGPIPAGEEKALELPLAASSIPRPRTPSPESHRSPAEGSERLSLSPLRGGEAGPDASPTVTTPTVTTPSLPAEVGSPHSTEVDESLSVSFEQVLPPSAPTSEAGLSLPLRGPRARRSASPHDVDLCLVSPCEFEHRKAVPMAPAPASPGSSNDSSARSQERAGGLGAEETPPTSVSESLPTLSDSDPVPLAPGAADSDEDTEGFGVPRHDPLPDPLKVPPPLPDPSSICMVDPEMLPPKTARQTENVSRTRKPLARPNSRAAAPKATPVAAAKTKGLAGGDRASRPLSARSEPSEKGGRAPLSRKSSTPKTATRGPSGSASSRPGVSATPPKSPVYLDLAYLPSGSSAHLVDEEFFQRVRALCYVISGQDQRKEEGMRAVLDALLASKQHWDRDLQVTLIPTFDSVAMHTWYAETHARHQALGITVLGSNSMVSMQDDAFPACKVEF [MAP1S] | 0.287 | 50.4 °C | 49.8 °C | -0.216 | -0.227 | -0.265
MAAVDIRDNLLGISWVDSSWIPILNSGSVLDYFSERSNPFYDRTCNNEVVKMQRLTLEHLNQMVGIEYILLHAQEPILFIIRKQQRQSPAQVIPLADYYIIAGVIYQAPDLGSVINSRVLTAVHGIQSAFDEAMSYCRYHPSKGYWWHFKDHEEQDKVRPKAKRKEEPSSIFQRQRVDALLLDLRQKFPPKFVQLKPGEKPVPVDQTKKEAEPIPETVKPEEKETTKNVQQTVSAKGPPEKRMRLQ [MED6] | 0.404 | 47.9 °C | 50 °C | 0.222 | -0.569 | -0.431
MAAVLNAERLEVSVDGLTLSPDPEERPGAEGAPLLPPPLPPPSPPGSGRGPGASGEQPEPGEAAAGGAAEEARRLEQRWGFGLEELYGLALRFFKEKDGKAFHPTYEEKLKLVALHKQVLMGPYNPDTCPEVGFFDVLGNDRRREWAALGNMSKEDAMVEFVKLLNRCCHLFSTYVASHKIEKEEQEKKRKEEEERRRREEEERERLQKEEEKRRREEEERLRREEEERRRIEEERLRLEQQKQQIMAALNSQTAVQFQQYAAQQYPGNYEQQQILIRQLQEQHYQQYMQQLYQVQLAQQQAALQKQQEVVVAGSSLPTSSKVNATVPSNMMSVNGQAKTHTDSSEKELEPEAAEEALENGPKESLPVIAAPSMWTRPQIKDFKEKIQQDADSVITVGRGEVVTVRVPTHEEGSYLFWEFATDNYDIGFGVYFEWTDSPNTAVSVHVSESSDDDEEEEENIGCEEKAKKNANKPLLDEIVPVYRRDCHEEVYAGSHQYPGRGVYLLKFDNSYSLWRSKSVYYRVYYTR [ACBD3] | -0.138 | 50.4 °C | 50.2 °C | -0.137 | -1.26 | -0.756
MAAVPELLQQQEEDRSKLRSVSVDLNVDPSLQIDIPDALSERDKVKFTVHTKTTLPTFQSPEFSVTRQHEDFVWLHDTLIETTDYAGLIIPPAPTKPDFDGPREKMQKLGEGEGSMTKEEFAKMKQELEAEYLAVFKKTVSSHEVFLQRLSSHPVLSKDRNFHVFLEYDQDLSVRRKNTKEMFGGFFKSVVKSADEVLFTGVKEVDDFFEQEKNFLINYYNRIKDSCVKADKMTRSHKNVADDYIHTAACLHSLALEEPTVIKKYLLKVAELFEKLRKVEGRVSSDEDLKLTELLRYYMLNIEAAKDLLYRRTKALIDYENSNKALDKARLKSKDVKLAEAHQQECCQKFEQLSESAKEELINFKRKRVAAFRKNLIEMSELEIKHARNNVSLLQSCIDLFKNN [SNX5] | 0.468 | 52.3 °C | 50.9 °C | -0.0436 | 0.949 | -0.872
MAAVSLRLGDLVWGKLGRYPPWPGKIVNPPKDLKKPRGKKCFFVKFFGTEDHAWIKVEQLKPYHAHKEEMIKINKGKRFQQAVDAVEEFLRRAKGKDQTSSHNSSDDKNRRNSSEERSRPNSGDEKRKLSLSEGKVKKNMGEGKKRVSSGSSERGSKSPLKRAQEQSPRKRGRPPKDEKDLTIPESSTVKGMMAGPMAAFKWQPTASEPVKDADPHFHHFLLSQTEKPAVCYQAITKKLKICEEETGSTSIQAADSTAVNGSITPTDKKIGFLGLGLMGSGIVSNLLKMGHTVTVWNRTAEKCDLFIQEGARLGRTPAEVVSTCDITFACVSDPKAAKDLVLGPSGVLQGIRPGKCYVDMSTVDADTVTELAQVIVSRGGRFLEAPVSGNQQLSNDGMLVILAAGDRGLYEDCSSCFQAMGKTSFFLGEVGNAAKMMLIVNMVQGSFMATIAEGLTLAQVTGQSQQTLLDILNQGQLASIFLDQKCQNILQGNFKPDFYLKYIQKDLRLAIALGDAVNHPTPMAAAANEVYKRAKALDQSDNDMSAVYRAYIH [GLYR1] | -1.74 | 53.3 °C | 52.4 °C | 1.01 | 1.22 | -1.43
MAAVVAATRWWQLLLVLSAAGMGASGAPQPPNILLLLMDDMGWGDLGVYGEPSRETPNLDRMAAEGLLFPNFYSANPLCSPSRAALLTGRLPIRNGFYTTNAHARNAYTPQEIVGGIPDSEQLLPELLKKAGYVSKIVGKWHLGHRPQFHPLKHGFDEWFGSPNCHFGPYDNKARPNIPVYRDWEMVGRYYEEFPINLKTGEANLTQIYLQEALDFIKRQARHHPFFLYWAVDATHAPVYASKPFLGTSQRGRYGDAVREIDDSIGKILELLQDLHVADNTFVFFTSDNGAALISAPEQGGSNGPFLCGKQTTFEGGMREPALAWWPGHVTAGQVSHQLGSIMDLFTTSLALAGLTPPSDRAIDGLNLLPTLLQGRLMDRPIFYYRGDTLMAATLGQHKAHFWTWTNSWENFRQGIDFCPGQNVSGVTTHNLEDHTKLPLIFHLGRDPGERFPLSFASAEYQEALSRITSVVQQHQEALVPAQPQLNVCNWAVMNWAPPGCEKLGKCLTPPESIPKKCLWSH [GALNS] | 0.789 | 55.5 °C | 57.8 °C | -0.0581 | -4.28 | -1.14
MAAVVVAAAGGAGPAVLQVAGLYRGLCAVRSRALGLGLVSPAQLRVFPVRPGSGRPEGGADSSGVGAEAELQANPFYDRYRDKIQLLRRSDPAAFESRLEKRSEFRKQPVGHSRQGDFIKCVEQKTDALGKQSVNRGFTKDKTLSSIFNIEMVKEKTAEEIKQIWQQYFAAKDTVYAVIPAEKFDLIWNRAQSCPTFLCALPRREGYEFFVGQWTGTELHFTALINIQTRGEAAASQLILYHYPELKEEKGIVLMTAEMDSTFLNVAEAQCIANQVQLFYATDRKETYGLVETFNLRPNEFKYMSVIAELEQSGLGAELKCAQNQNKT [ATPAF1] | 0.199 | 51.4 °C | 51.5 °C | -0.00439 | 1.88 | 1.83
MAAWGRRRLGPGSSGGSARERVSLSATDCYIVHEIYNGENAQDQFEYELEQALEAQYKYIVIEPTRIGDETARWITVGNCLHKTAVLAGTACLFTPLALPLDYSHYISLPAGVLSLACCTLYGISWQFDPCCKYQVEYDAYKLSRLPLHTLTSSTPVVLVRKDDLHRKRLHNTIALAALVYCVKKIYELYAV [TMEM11] | -0.0105 | 52.2 °C | 51.4 °C | -0.0939 | -0.391 | -1.34
MAAYLQWRRFVFFDKELVKEPLSNDGAAPGATPASGSAASKFLCLPPGITVCDSGRGSLVFGDMEGQIWFLPRSLQLTGFQAYKLRVTHLYQLKQHNILASVGEDEEGINPLVKIWNLEKRDGGNPLCTRIFPAIPGTEPTVVSCLTVHENLNFMAIGFTDGSVTLNKGDITRDRHSKTQILHKGNYPVTGLAFRQAGKTTHLFVVTTENVQSYIVSGKDYPRVELDTHGCGLRCSALSDPSQDLQFIVAGDECVYLYQPDERGPCFAFEGHKLIAHWFRGYLIIVSRDRKVSPKSEFTSRDSQSSDKQILNIYDLCNKFIAYSTVFEDVVDVLAEWGSLYVLTRDGRVHALQEKDTQTKLEMLFKKNLFEMAINLAKSQHLDSDGLAQIFMQYGDHLYSKGNHDGAVQQYIRTIGKLEPSYVIRKFLDAQRIHNLTAYLQTLHRQSLANADHTTLLLNCYTKLKDSSKLEEFIKKKSESEVHFDVETAIKVLRQAGYYSHALYLAENHAHHEWYLKIQLEDIKNYQEALRYIGKLPFEQAESNMKRYGKILMHHIPEQTTQLLKGLCTDYRPSLEGRSDREAPGCRANSEEFIPIFANNPRELKAFLEHMSEVQPDSPQGIYDTLLELRLQNWAHEKDPQVKEKLHAEAISLLKSGRFCDVFDKALVLCQMHDFQDGVLYLYEQGKLFQQIMHYHMQHEQYRQVISVCERHGEQDPSLWEQALSYFARKEEDCKEYVAAVLKHIENKNLMPPLLVVQTLAHNSTATLSVIRDYLVQKLQKQSQQIAQDELRVRRYREETTRIRQEIQELKASPKIFQKTKCSICNSALELPSVHFLCGHSFHQHCFESYSESDADCPTCLPENRKVMDMIRAQEQKRDLHDQFQHQLRCSNDSFSVIADYFGRGVFNKLTLLTDPPTARLTSSLEAGLQRDLLMHSRRGT [VPS11] | -0.142 | 51.3 °C | 49.9 °C | -0.106 | -0.498 | -0.231
